Measurements taken from patent US10393755B2, “Compositions and methods for treating eye infections and disease” (UNIVERSITY OF VIRGINIA PATENT FOUNDATION, priority 2014, dated 2019).

Assays:
corneal sensory nerves = experiment: Corneal sensory nerve activity monitored at the trigeminal ganglion; format: in vivo, rat
Text: Topical lacritin stimulates tearing even without physical access to lacrimal acinar cells. The rapidity of the response is in keeping with corneal sensory nerve activation. Individual corneal sensory nerve activity was monitored at the level of the trigeminal ganglion in rats via previously described methods. Emerging from these studies was the observation that topical lacritin is neural stimulatory. […] The ‘dry response’ refers to neural activation as a consequence of drying of the cornea, which is thought to be a critical TRPM8-mediated stimulus for tearing, while the ‘wet response’ occurs when the agonist is present at the corneal nerve terminals. […] Apparent inhibition of the action potentials by lacritin during wet cornea was small because the TRPM8 activity during wet cornea is low to begin with, while it reaches optimal level during dry cornea when dynamic cooling of the ocular surface is taking place. Lacritin may also increase TRPM8 neural density.

E. coli = experiment: Lacritin inhibition (colony count) assay, E. coli; format: cell-based; details: 2 uM, mid-log E. coli
Method: (§1) Bacterial Growth, SYTOX Green Assays, and on Column Cleavage—E. coli (ATCC (Manassas Va.) catalog no. 10536), S. epidermidis (ATCC catalog no. 12228), and P. aeruginosa (ATCC catalog no. 9027) were grown to mid-log phase in 50 ml of Luria-Bertani (LB) medium and washed three times in phosphate buffer containing 10 mM NaCl (pH 7.2; PB—NaCl) with centrifugation. Pellets were resuspended in 1 ml of PB—NaCl.
(§2) For lacritin inhibition assays, 50 ul of bacterial pellets each diluted 1:100 in PB—NaCl were incubated for 1.5 h (37° C.) with 100 ul of lacritin, lacritin truncations, or synthetic peptides at a final concentration of 0.1-6 uM. Mixtures were diluted 1:10 in PB—NaCl before plating 100 ul in quadruplicate on LB agar plates for overnight growth at 37° C. Colonies were manually counted. In other experiments, mid-log E. coli was treated at 37° C. for 0, 1, 2, or 3 h with 2 uM lacritin or lacritin truncations or with ampicillin (5 uM) or tetracycline (2 uM). After each treatment, 100 ul was centrifuged, resuspended in 1 ml of PB—NaCl, and plated (100 ul) onto LB agar for overnight growth (37° C.) and colony counting.

HCE-T cells = experiment: FOXO3 translocation assay in IFNG/TNF stressed HCE-T cells; format: cell-based, human; details: for FOXO3 cytoplasmic staining (pro-survival activity): 10 nM, interferon-γ and TNF stressed HCE-T cells
Method: For FOXO3 translocation assays, HCE-T cells were grown in triplicate to subconfluence (˜50%) on coverslips in α-MEM (5.54 mm glucose), sensitized overnight in IFNG (100 units/ml; Roche Applied Science), and treated for 15 min with normal or dry eye tears diluted 1:100 in α-MEM together with TNF (50 ng/ml; PeproTech, Rocky Hill, N.J.) without or with 10 nm lacritin or C-25. Cells were washed, fixed with 4% paraformaldehyde, and immunostained for FOXO3 (1:200; Millipore, Billerica, Mass.) followed by goat anti-rabbit secondary antibody and visualization on a Zeiss LSM 700 microscope.

S. epidermidis = experiment: Lacritin inhibition (colony count) assay, S. epidermidis; format: cell-based; details: 2 uM, mid-log S. epidermidis
Method: as §1, §2

basal tearing = details: Sumadre et al. 2011, cited from earlier work
bacteria = experiment: Lacritin inhibition (colony count) assay, bacterium not given; format: cell-based; details: whole protein
Method: as §1, §2

Aire(−/−) dry eye mice = experiment: Topical treatment of Aire(-/-) dry eye mice; format: in vivo, mouse
Method: Autoimmune regulator (Aire)-deficient [Aire^−/−] mice spontaneously develop dry eye without need for dry chambers or scopolamine Aire^−/− mice were dosed three times daily for three weeks with 10 μl of 50 μg/mllacritin, or in controls with PBS. Several different assays monitored the consequences. […] Topical lacritin reduced CD4+T cell infiltration into lacrimal glands measured as the number of lymphocytic foci/per millimeter square area of lacrimal gland tissue (3.68±0.65 per mm sq lacritin vs. 9.7+1.5 per mm sq PBS; P=0.01), but had no apparent effect on the pattern or distribution of CD4+T cells into either the corneal stroma (14.6±1.6 lacritin vs 12.4±2.1 PBS) or the limbus (29.6±2.5 lacritin vs 34.6±2.9 PBS.
To assess ocular surface mucosal damage from dry eye, eyes of Aire(−/−) dry eye mice were topically administered lissamine green that increasingly stained PBS-treated eyes with time (See FIG. 4C). […] Thus, topical lacritin, and its bioactive fragments thereof, diminished lacrimal gland inflammation and corneal staining in dry eye, and promoted ocular surface differentiation. Importantly, suppression of inflammation and promotion of tearing was achieved without direct contact with inflammatory cells nor with tear producing cells.

[1] = tested on: primary human corneal epithelial cells; experiment: FOXO3 translocation in INFG/TNF stressed primary human corneal epithelial cells; format: cell-based
P. aeruginosa = experiment: Lacritin inhibition (colony count) assay, P. aeruginosa; format: cell-based; details: 2 uM, mid-log P. aeruginosa
Method: as §1, §2

[2] = format: in vitro ADME, human
Method: A limitation of most synthetic peptide drugs is their protease sensitivity. […] Retropepsin would inactivate LACRIPEP, while cathepsin K would have no effect. However neither protease is found in normal human tears. Nonetheless, tears are rich in other proteases. We therefore incubated LACRIPEP in normal human tears at 37° C. for 2, 4, 6 and 16 hr. For immunoblotting, we first removed all endogenous lacritin by immunodepletion. […] (FIG. 6B).

syndecan-1 = target: T1, syndecan-1 (Homo sapiens, UniProt P18827, L136Q); experiment: Binding to syndecan-1
T1 sequence (P18827 23-310 L136Q): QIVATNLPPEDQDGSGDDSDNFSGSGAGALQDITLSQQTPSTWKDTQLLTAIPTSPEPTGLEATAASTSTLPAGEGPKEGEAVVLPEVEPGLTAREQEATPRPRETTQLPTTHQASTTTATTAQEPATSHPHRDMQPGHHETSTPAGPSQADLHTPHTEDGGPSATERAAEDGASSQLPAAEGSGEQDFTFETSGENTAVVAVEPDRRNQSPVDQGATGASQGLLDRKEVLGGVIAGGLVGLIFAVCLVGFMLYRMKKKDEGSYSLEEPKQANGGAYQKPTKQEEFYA

B1: lacritin: 12.3 kDa secreted tear glycoprotein; recombinant, generated in Escherichia coli (protein, listed as Homo sapiens)
chain: MKFTTLLFLAAVAGALVYAEDASSDSTGADPAQEAGTSKPNEEISGPAEPASPPETTTTAQETSAAAVQGTAKVTSSRQELNPLKSIVEKSILLTEQALAKAGKGMHGGVPGGKQFIENGSEFAQKLLKKFSLLKPWA
Corneal neuron activity immediately after application (corneal sensory nerves; 10 μM, from ˜12 before): ~8 spikes/s
Wet response after 1 hr and washout (corneal sensory nerves; 10 μM, from ˜12 before): ~16 spikes/s
Dry response after 1 hr and washout (corneal sensory nerves; 10 μM, from ˜20 before): ~23 spikes/s
Neural dry response (corneal sensory nerves; topical): enhanced
Appearance of colonies (E. coli): no effect on the appearance of colonies
FOXO3 translocation to the cytoplasm by dry eye tears spiked with the substance (HCE-T cells; dry eye tears 1:100, 10 nM, 15 min): translocated FOXO3 to the cytoplasm
Appearance of colonies (S. epidermidis): no effect on the appearance of colonies
Tolerability of multiple doses per day (basal tearing): well tolerated
Increase of basal tearing over vehicle (basal tearing; acute): 30%
Bactericidal activity (bacteria): does not have bactericidal activity
Keratin 10 levels (skin epidermal marker) (Aire(−/−) dry eye mice): diminished levels
Keratin 12 expression (corneal marker) (Aire(−/−) dry eye mice): 80.1±4.8%
Lissamine green staining (Aire(−/−) dry eye mice): −0.417±0.06
Lymphocytic foci per millimeter square area of lacrimal gland tissue (CD4+T cell infiltration) (Aire(−/−) dry eye mice; three times daily for three weeks, 10 μl of 50 μg/ml): 3.68±0.65 per mm sq
CD4+T cells in corneal stroma (Aire(−/−) dry eye mice; three weeks): 14.6±1.6
CD4+T cells in limbus (Aire(−/−) dry eye mice; three weeks): 29.6±2.5
FOXO3 translocation [1]: translocated FOXO3
Appearance of colonies (P. aeruginosa): no effect on the appearance of colonies
Cross-linking of monomer spiked into immunodepleted tears [2]: formed dimers, trimers and tetramers

B2: Cross-linked lacritin: lacritin monomer cross-linked into inactive multimers by tissue transglutaminase (protein)
chain: EDASSDSTGADPAQEAGTSKPNEEISGPAEPASPPETTTTAQETSAAAVQGTAKVTSSRQELNPLKSIVEKSILLTEQALAKAGKGMHGGVPGGKQFIENGSEFAQKLLKKFSLLKPWA
FOXO3 cytoplasmic staining (pro-survival activity) (HCE-T cells): less active
FOXO3 cytoplasmic staining (pro-survival activity) (HCE-T cells; listed as tissue transglutaminase polymerized lacritin): inactive
Binding to syndecan-1 (syndecan-1): substantially less
